Assay results published in patent US12215133.

Target: T1, GIP receptor
T1 sequence (P48546 whole entry, species assumed, looked up): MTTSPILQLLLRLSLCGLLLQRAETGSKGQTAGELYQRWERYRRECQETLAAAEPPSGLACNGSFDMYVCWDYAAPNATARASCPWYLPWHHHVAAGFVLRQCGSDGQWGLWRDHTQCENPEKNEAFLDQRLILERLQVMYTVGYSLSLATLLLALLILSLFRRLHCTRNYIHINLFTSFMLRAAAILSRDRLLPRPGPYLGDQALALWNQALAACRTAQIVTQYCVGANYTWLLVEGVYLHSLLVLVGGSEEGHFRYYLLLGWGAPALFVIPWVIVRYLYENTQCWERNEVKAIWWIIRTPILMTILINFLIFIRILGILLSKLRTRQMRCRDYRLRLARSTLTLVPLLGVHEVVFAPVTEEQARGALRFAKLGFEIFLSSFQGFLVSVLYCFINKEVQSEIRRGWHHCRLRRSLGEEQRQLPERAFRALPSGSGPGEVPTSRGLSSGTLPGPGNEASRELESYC
Assay: cell-based or functional assay

Row | Substance | cAMP experimental result of GIP receptor, EC50 [nM]
1 | BG121 (LY3298176) (peptide) | 1.79
2 | BGM134 (Semaglutide) (peptide) | > 50
